{"source": "patent US20170368136A1", "about": "(REGENTS OF THE UNIVERSITY OF COLORADO A BODY CORPORATE, published 2017)", "binders": {"B1": {"name": "CN20 (peptide)", "peptide": "KRPPKLGQIGRSKRVVIEDD"}, "B2": {"name": "CN19o (peptide)", "peptide": "KRAPKLGQIGRQKAVDIED"}, "B3": {"name": "CN19 R11A (peptide)", "peptide": "KRPPKLGQIGASKRVVIED"}, "B4": {"name": "CN19a2v V12Q (peptide)", "peptide": "KRAPKLGQIGRQKAVVIED"}, "B5": {"name": "CN19 (peptide)", "peptide": "KRPPKLGQIGRSKRVVIED"}, "B6": {"name": "CN19 R14A (peptide)", "peptide": "KRPPKLGQIGRSKAVVIED"}, "B7": {"name": "CN19 S12A (peptide)", "peptide": "KRPPKLGQIGRAKRVVIED"}, "B8": {"name": "CN19a2v V16D (peptide)", "peptide": "KRAPKLGQIGRVKAVDIED"}, "B9": {"name": "CN19a2v (peptide)", "peptide": "KRAPKLGQIGRVKAVVIED"}}, "target": "CaMKII", "sequence (chain, from a related filing, as listed by the source)": "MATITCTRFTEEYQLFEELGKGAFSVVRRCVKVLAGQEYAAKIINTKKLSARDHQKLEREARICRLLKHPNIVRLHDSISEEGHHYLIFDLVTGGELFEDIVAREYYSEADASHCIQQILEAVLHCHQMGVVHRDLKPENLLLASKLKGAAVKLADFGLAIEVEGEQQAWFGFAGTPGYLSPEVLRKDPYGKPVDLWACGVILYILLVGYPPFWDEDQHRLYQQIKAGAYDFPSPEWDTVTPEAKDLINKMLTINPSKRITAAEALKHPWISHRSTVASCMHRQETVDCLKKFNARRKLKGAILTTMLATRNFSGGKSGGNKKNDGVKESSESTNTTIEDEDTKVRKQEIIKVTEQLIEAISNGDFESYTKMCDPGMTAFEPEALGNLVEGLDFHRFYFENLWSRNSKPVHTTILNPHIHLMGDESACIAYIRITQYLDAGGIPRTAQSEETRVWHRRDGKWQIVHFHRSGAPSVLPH", "test": "cell-based or functional assay", "data": [{"binder": "B1", "values": [{"measurement": "IC50, phosphorylation of syntide 2 by CaMKII", "result": "~100", "unit": "nM"}]}, {"binder": "B2", "values": [{"measurement": "IC50 of CaMKII inhibition (CaMKII activity assay, 0.1 nM CaMKII)", "result": "~0.75", "unit": "nM"}, {"measurement": "fold potency of CaMKII inhibition against CN19", "result": "> 125", "unit": "fold"}]}, {"binder": "B3", "values": [{"measurement": "fold reduction of potency of CaMKII inhibition against CN19", "result": "> 3", "unit": "fold"}]}, {"binder": "B4", "values": [{"measurement": "IC50 of CaMKII inhibition", "result": "~1", "unit": "nM"}]}, {"binder": "B5", "values": [{"measurement": "IC50, phosphorylation of syntide 2 by CaMKII", "result": "~100", "unit": "nM"}]}, {"binder": "B6", "values": [{"measurement": "fold increase of potency of CaMKII inhibition against CN19 wild type", "result": "> 10", "unit": "fold"}]}, {"binder": "B7", "values": [{"measurement": "fold decrease of potency of CaMKII inhibition against CN19", "result": "> 3", "unit": "fold"}]}, {"binder": "B8", "values": [{"measurement": "IC50 of CaMKII inhibition", "result": "~1", "unit": "nM"}]}, {"binder": "B9", "values": [{"measurement": "IC50 of CaMKII inhibition (syntide 2)", "result": "~20", "unit": "nM"}, {"measurement": "fold potency of CaMKII inhibition against CN19", "result": "~5", "unit": "fold"}]}]}
